Test results: the supplement of paper PMC9112550, “Optimization of the antimicrobial peptide Bac7 by deep mutational scanning” (BMC Biology, 2022)

These sequences were tested on Escherichia coli TOP10 (assay: shrunken log2 fold change of peptide-encoding DNA abundance (4.5 h post-induction vs induction); higher = less antimicrobial activity (less host growth inhibition)). Details: time post-induction: 4.5 h; library: site-saturation at positions 5, 18, 19, 20.
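Further: peptides expressed intracellularly from a pBAD plasmid library in pooled LB shake-flask culture, induced with 0.3% L-arabinose, DNA abundance read by NGS, three biological replicates, DESeq2 with apeglm shrinkage.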

Row | Sequence | shrunken log2 fold change
1 | RRIRSRPPRLPRPRPRPGAMPRP | 0.724
2 | RRIRWRPPRLPRPRPRPHDWPRP | 0.15
3 | RRIRLRPPRLPRPRPRPIWWPRP | 0.94
4 | RRIRCRPPRLPRPRPRPTSAPRP | 0.18
5 | RRIRPRPPRLPRPRPRPACNPRP | 0.00285
6 | RRIRKRPPRLPRPRPRPVQSPRP | 0.00205
7 | RRIRERPPRLPRPRPRPFVEPRP | 0.0315
8 | RRIRARPPRLPRPRPRPSCWPRP | 0.628
9 | RRIRERPPRLPRPRPRPLGSPRP | -0.0249
10 | RRIRGRPPRLPRPRPRPSAHPRP | 1.12
11 | RRIRMRPPRLPRPRPRPCWWPRP | 0.0436
12 | RRIRSRPPRLPRPRPRPFCNPRP | -0.106
13 | RRIRGRPPRLPRPRPRPSYQPRP | -0.0215
14 | RRIRIRPPRLPRPRPRPWYSPRP | -0.821
15 | RRIRFRPPRLPRPRPRPMWHPRP | 0.0814
16 | RRIRVRPPRLPRPRPRPRWCPRP | 0.295
17 | RRIRVRPPRLPRPRPRPLAWPRP | 0.0442
18 | RRIRVRPPRLPRPRPRPMEVPRP | -0.997
19 | RRIRERPPRLPRPRPRPDDRPRP | -0.135
20 | RRIRRRPPRLPRPRPRPNSGPRP | 0.279
21 | RRIRGRPPRLPRPRPRPRDNPRP | 0.0439
22 | RRIRNRPPRLPRPRPRPPGTPRP | 0.241
23 | RRIRARPPRLPRPRPRPNGWPRP | 0.401
24 | RRIRLRPPRLPRPRPRPTWEPRP | 0.0313
25 | RRIRFRPPRLPRPRPRPAEIPRP | -0.228

Row | Sequence | shrunken log2 fold change
26 | RRIRMRPPRLPRPRPRPHFQPRP | 0.22
27 | RRIRWRPPRLPRPRPRPDMVPRP | 0.0298
28 | RRIRCRPPRLPRPRPRPIMMPRP | -0.211
29 | RRIRMRPPRLPRPRPRPNGHPRP | -0.00897
30 | RRIRQRPPRLPRPRPRPTWRPRP | 0.345
31 | RRIRARPPRLPRPRPRPKQKPRP | 0.529
32 | RRIRLRPPRLPRPRPRPLYIPRP | -0.932
33 | RRIRKRPPRLPRPRPRPQMDPRP | 0.618
34 | RRIRWRPPRLPRPRPRPKCQPRP | 0.136
35 | RRIRPRPPRLPRPRPRPGPNPRP | 0.51
36 | RRIRDRPPRLPRPRPRPHENPRP | 0.116
37 | RRIRCRPPRLPRPRPRPYQIPRP | -0.852
38 | RRIRARPPRLPRPRPRPRKCPRP | 0.154
39 | RRIRVRPPRLPRPRPRPCGAPRP | 0.279
40 | RRIRERPPRLPRPRPRPYICPRP | -0.486
41 | RRIRGRPPRLPRPRPRPLAPPRP | 0.998
42 | RRIRMRPPRLPRPRPRPGHGPRP | 0.32
43 | RRIRKRPPRLPRPRPRPKDFPRP | -0.0746
44 | RRIRSRPPRLPRPRPRPRYKPRP | -0.154
45 | RRIRRRPPRLPRPRPRPDHHPRP | -0.254
46 | RRIRDRPPRLPRPRPRPCFKPRP | -0.0968
47 | RRIRGRPPRLPRPRPRPQKVPRP | 0.129
48 | RRIRTRPPRLPRPRPRPMAMPRP | 0.0345
49 | RRIRARPPRLPRPRPRPNNVPRP | -0.0632
50 | RRIRIRPPRLPRPRPRPADLPRP | 0.0446

Row | Sequence | shrunken log2 fold change
51 | RRIRLRPPRLPRPRPRPSDYPRP | -0.106
52 | RRIRWRPPRLPRPRPRPHSAPRP | -0.0726
53 | RRIRDRPPRLPRPRPRPNFYPRP | -0.109
54 | RRIRPRPPRLPRPRPRPTHPPRP | 0.653
55 | RRIRNRPPRLPRPRPRPHGKPRP | 0.0681
56 | RRIRERPPRLPRPRPRPIMLPRP | -0.227
57 | RRIRLRPPRLPRPRPRPYASPRP | 0.000498
58 | RRIRVRPPRLPRPRPRPLHLPRP | -0.133
59 | RRIRSRPPRLPRPRPRPMEMPRP | -0.0909
60 | RRIRLRPPRLPRPRPRPNPYPRP | -0.0545
61 | RRIRGRPPRLPRPRPRPLYYPRP | -0.13
62 | RRIRTRPPRLPRPRPRPHMQPRP | -0.249
63 | RRIRCRPPRLPRPRPRPRMSPRP | 0.041
64 | RRIRHRPPRLPRPRPRPDPTPRP | -0.0262
65 | RRIRCRPPRLPRPRPRPCDGPRP | 0.0624
66 | RRIRDRPPRLPRPRPRPRTRPRP | 0.0925
67 | RRIRSRPPRLPRPRPRPDIQPRP | -0.274
68 | RRIRHRPPRLPRPRPRPWFCPRP | -0.583
69 | RRIRFRPPRLPRPRPRPQVSPRP | -0.298
70 | RRIRHRPPRLPRPRPRPWHHPRP | 0.0223
71 | RRIRQRPPRLPRPRPRPNLRPRP | 0.0769
72 | RRIRSRPPRLPRPRPRPLMSPRP | -0.0126
73 | RRIRRRPPRLPRPRPRPWVQPRP | 0.25
74 | RRIRDRPPRLPRPRPRPTQKPRP | 0.268
75 | RRIRMRPPRLPRPRPRPAFLPRP | 0.175

Row | Sequence | shrunken log2 fold change
76 | RRIRWRPPRLPRPRPRPDDYPRP | 0.0299
77 | RRIRWRPPRLPRPRPRPNLNPRP | -0.401
78 | RRIRTRPPRLPRPRPRPSIGPRP | -0.272
79 | RRIRARPPRLPRPRPRPRFNPRP | 0.269
80 | RRIRNRPPRLPRPRPRPASEPRP | -0.0216
81 | RRIRWRPPRLPRPRPRPARLPRP | 0.523
82 | RRIRSRPPRLPRPRPRPTSEPRP | 0.292
83 | RRIRQRPPRLPRPRPRPLPKPRP | -0.226
84 | RRIRWRPPRLPRPRPRPGAMPRP | 0.524
85 | RRIRARPPRLPRPRPRPQAQPRP | 0.664
86 | RRIRHRPPRLPRPRPRPGGVPRP | 0.237
87 | RRIRHRPPRLPRPRPRPYESPRP | -0.0531
88 | RRIRWRPPRLPRPRPRPCDHPRP | -0.00122
89 | RRIRIRPPRLPRPRPRPSCVPRP | -0.544
90 | RRIRYRPPRLPRPRPRPWVCPRP | -0.0275
91 | RRIRHRPPRLPRPRPRPGHEPRP | -0.133
92 | RRIRKRPPRLPRPRPRPHLIPRP | 0.108
93 | RRIRRRPPRLPRPRPRPTICPRP | 0.394
94 | RRIRARPPRLPRPRPRPYHVPRP | -0.963
95 | RRIRARPPRLPRPRPRPGDSPRP | 0.339
96 | RRIRPRPPRLPRPRPRPNNWPRP | -0.173
97 | RRIRWRPPRLPRPRPRPFMHPRP | -0.153
98 | RRIRNRPPRLPRPRPRPSDTPRP | -0.00711
99 | RRIRHRPPRLPRPRPRPIREPRP | -0.00145
100 | RRIRARPPRLPRPRPRPRTGPRP | 0.387

Row | Sequence | shrunken log2 fold change
101 | RRIRWRPPRLPRPRPRPHDVPRP | 0.132
102 | RRIRKRPPRLPRPRPRPWDPPRP | -0.235
103 | RRIRRRPPRLPRPRPRPGLNPRP | -0.0395
104 | RRIRTRPPRLPRPRPRPIEEPRP | 0.0678
105 | RRIRKRPPRLPRPRPRPMHAPRP | 0.00395
106 | RRIRYRPPRLPRPRPRPLPNPRP | -0.296
107 | RRIRTRPPRLPRPRPRPTYQPRP | -0.206
108 | RRIRVRPPRLPRPRPRPPHAPRP | 0.351
109 | RRIRQRPPRLPRPRPRPMFAPRP | 0.0682
110 | RRIRSRPPRLPRPRPRPNRFPRP | -0.0804
111 | RRIRTRPPRLPRPRPRPVPRPRP | 0.315
112 | RRIRRRPPRLPRPRPRPREGPRP | 1.33
113 | RRIRQRPPRLPRPRPRPRQFPRP | -0.121
114 | RRIRERPPRLPRPRPRPRLKPRP | -0.0205
115 | RRIRQRPPRLPRPRPRPTNMPRP | -0.521
116 | RRIRCRPPRLPRPRPRPMNQPRP | -0.248
117 | RRIRLRPPRLPRPRPRPTPPPRP | 0.648
118 | RRIRYRPPRLPRPRPRPKIHPRP | -1.18
119 | RRIRQRPPRLPRPRPRPNFEPRP | -0.00188
120 | RRIRSRPPRLPRPRPRPPFDPRP | 0.244
121 | RRIRKRPPRLPRPRPRPDTMPRP | 0.224
122 | RRIRWRPPRLPRPRPRPKKPPRP | 0.558
123 | RRIRHRPPRLPRPRPRPLHHPRP | -0.554
124 | RRIRHRPPRLPRPRPRPKVVPRP | -0.00398
125 | RRIRLRPPRLPRPRPRPRPNPRP | 0.348

Row | Sequence | shrunken log2 fold change
126 | RRIRGRPPRLPRPRPRPIDAPRP | 0.674
127 | RRIRRRPPRLPRPRPRPKNAPRP | 0.0423
128 | RRIRHRPPRLPRPRPRPMPQPRP | 0.235
129 | RRIRQRPPRLPRPRPRPSPRPRP | 0.31
130 | RRIRWRPPRLPRPRPRPHYPPRP | -0.225
131 | RRIRIRPPRLPRPRPRPSLVPRP | 0.0916
132 | RRIRFRPPRLPRPRPRPVGAPRP | 0.472
133 | RRIRSRPPRLPRPRPRPWANPRP | 0.0508
134 | RRIRGRPPRLPRPRPRPWECPRP | -0.00149
135 | RRIRWRPPRLPRPRPRPDDVPRP | 0.0399
136 | RRIRRRPPRLPRPRPRPPVAPRP | 0.769
137 | RRIRNRPPRLPRPRPRPSCHPRP | 1.83
138 | RRIRMRPPRLPRPRPRPYKIPRP | -0.544
139 | RRIRGRPPRLPRPRPRPMLAPRP | 1.9
140 | RRIRKRPPRLPRPRPRPFMPPRP | -0.0694
141 | RRIRRRPPRLPRPRPRPFFFPRP | 0.504
142 | RRIRLRPPRLPRPRPRPEPRPRP | 0.74
143 | RRIRSRPPRLPRPRPRPHQRPRP | -0.249
144 | RRIRRRPPRLPRPRPRPVQFPRP | 0.0855
145 | RRIRSRPPRLPRPRPRPWEAPRP | 0.019
146 | RRIRMRPPRLPRPRPRPIMDPRP | -0.133
147 | RRIRSRPPRLPRPRPRPEYAPRP | 0.496
148 | RRIRKRPPRLPRPRPRPYISPRP | -0.0238
149 | RRIRCRPPRLPRPRPRPNRVPRP | -0.206
150 | RRIRNRPPRLPRPRPRPMGPPRP | 0.0762
